For assay [1], the target named is human PD-1 (Programmed Death-1) (human) (UniProt Q15116). The assay is described as follows: cell-based or functional assay.
The target in assay [2] is human PD-L1 (PD-ligand 1) (human) (UniProt Q9NZQ7). The assay is described as follows: cell-based or functional assay.

We go through two molecules from patent US20180155430A1.

UniProt Q9NZQ7, sequence (Q9NZQ7 19-290 limits assumed): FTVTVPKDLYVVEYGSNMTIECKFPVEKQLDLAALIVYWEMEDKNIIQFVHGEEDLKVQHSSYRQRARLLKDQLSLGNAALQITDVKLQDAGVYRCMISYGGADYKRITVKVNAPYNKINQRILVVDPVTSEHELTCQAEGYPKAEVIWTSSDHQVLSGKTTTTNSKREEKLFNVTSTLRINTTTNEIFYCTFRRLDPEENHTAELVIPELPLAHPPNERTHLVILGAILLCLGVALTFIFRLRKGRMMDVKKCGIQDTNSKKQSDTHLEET
UniProt Q15116, sequence (Q15116 other isoform, or with tags, fused parts or gaps limits assumed): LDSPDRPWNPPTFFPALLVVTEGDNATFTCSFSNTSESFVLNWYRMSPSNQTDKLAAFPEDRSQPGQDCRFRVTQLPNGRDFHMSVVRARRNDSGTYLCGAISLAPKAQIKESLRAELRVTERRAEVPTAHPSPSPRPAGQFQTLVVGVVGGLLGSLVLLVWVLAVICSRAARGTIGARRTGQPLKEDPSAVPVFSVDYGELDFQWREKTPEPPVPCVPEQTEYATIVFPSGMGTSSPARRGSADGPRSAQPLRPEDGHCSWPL

In the case of “anti-human PD-1 monoclonal antibody EH12”, in assay [1], the expansion of HCV-specific CFSE-low tetramer+ CD8+ T cells, 6 days with cognate peptide and IL-2 came to 4 fold.

B1: anti-human PD-L1 monoclonal antibody 29E.2A3 (antibody, from another filing, mouse IgG2b, V domains shown)
VH: EVQLQQSGPELVKPGASVKMSCKASGYTFTSYVMHWVKQKPGQGLEWIGYVNPFNDGTKYNEMFKGKATLTSDKSSSTAYMELSSLTSEDSAVYYCARQAWGYPWGQGTLVTVSA
VL: DIVLTQSPASLAVSLGQRATISCRATESVEYYGTSLVQWYQQKPGQPPKLLIYAASSVDSGVPARFSGSGSGTDFSLTIHPVEEDDIAMYFCQQSRRVPYTFGGGTKLEIK
With B1, in assay [2], the expansion of HCV-specific CFSE-low tetramer+ CD8+ T cells, 6 days with cognate peptide and IL-2 amounted to 4 fold; the fold increase in B*4201 TL9 tetramer+ CD8+ T cells, 6-day CFSE proliferation assay of human PBMC with TL9 peptide plus antibody (peptide alone: 4.8-fold) amounted to 10.3 fold; the fold increase in frequency of EBV or CMV-specific CD8 T cells, 6-day CFSE assay, peptide plus antibody against peptide alone is below 3.5 fold; the percentage of B*4201 TL9-specific CD8+ T cells after 6-day stimulation with peptide worked out at 12.4%.
